How the values were obtained:
ti10b_arath TIFY10B = ti10b_arath TIFY10B (UniProt Q9S7M2)
tif5a_arath TIFY5A = tif5a_arath TIFY5A (UniProt Q8LBM2)
tif6b_arath TIFY6B = tif6b_arath TIFY6B (UniProt Q9LVI4)
ti11b_arath TIFY11B = ti11b_arath TIFY11B (UniProt Q9C9E3)
tif3b_arath TIFY3B = tif3b_arath TIFY3B (UniProt Q9C5K8)
tif6a_arath TIFY6A = tif6a_arath TIFY6A (UniProt Q58G47)
tif3a_arath TIFY3A = tif3a_arath TIFY3A (UniProt Q9M246)
ti11a_arath TIFY11A = ti11a_arath TIFY11A (UniProt Q9LDU5)
tif7_arath TIFY7 = tif7_arath TIFY7 (UniProt Q8W4J8)
ti10a_arath TIFY10A = ti10a_arath TIFY10A (UniProt Q9LMA8)
tif9_arath TIFY9 = tif9_arath TIFY9 (UniProt Q93ZM9)

Measured: effect of a mutation on the interaction

Chain of Transcription factor MYC3 (Arabidopsis thaliana (Mouse-ear cress)), Q9FIP9 F151A;L152A (Q9FIP9 whole entry F151A/L152A): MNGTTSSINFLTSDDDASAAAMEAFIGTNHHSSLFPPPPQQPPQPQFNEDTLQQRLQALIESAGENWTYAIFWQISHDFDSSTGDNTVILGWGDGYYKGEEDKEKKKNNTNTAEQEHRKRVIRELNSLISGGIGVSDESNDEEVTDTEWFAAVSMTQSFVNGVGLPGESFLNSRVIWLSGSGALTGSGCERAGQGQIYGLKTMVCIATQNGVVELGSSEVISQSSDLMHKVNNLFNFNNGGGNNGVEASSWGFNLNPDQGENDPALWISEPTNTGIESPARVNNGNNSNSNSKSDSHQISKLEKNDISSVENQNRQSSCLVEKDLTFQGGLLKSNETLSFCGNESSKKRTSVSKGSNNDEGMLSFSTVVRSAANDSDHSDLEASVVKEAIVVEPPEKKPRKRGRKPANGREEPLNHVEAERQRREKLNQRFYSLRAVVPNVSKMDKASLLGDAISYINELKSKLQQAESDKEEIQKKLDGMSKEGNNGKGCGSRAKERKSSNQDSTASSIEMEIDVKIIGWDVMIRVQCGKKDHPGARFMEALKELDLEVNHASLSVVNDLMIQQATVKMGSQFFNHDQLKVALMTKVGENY
Chain of tif6b_arath TIFY6B (Q9LVI4 whole entry): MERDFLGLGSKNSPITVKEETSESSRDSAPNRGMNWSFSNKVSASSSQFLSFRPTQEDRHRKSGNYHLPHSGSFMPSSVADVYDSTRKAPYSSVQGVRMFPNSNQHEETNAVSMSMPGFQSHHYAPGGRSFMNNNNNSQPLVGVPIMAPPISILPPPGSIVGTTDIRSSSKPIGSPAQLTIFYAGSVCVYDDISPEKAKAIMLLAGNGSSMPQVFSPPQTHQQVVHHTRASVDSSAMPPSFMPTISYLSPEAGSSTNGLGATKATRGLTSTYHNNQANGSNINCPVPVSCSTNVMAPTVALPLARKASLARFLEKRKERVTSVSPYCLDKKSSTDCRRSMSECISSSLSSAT
Chain of tif3a_arath TIFY3A (Q9M246 whole entry): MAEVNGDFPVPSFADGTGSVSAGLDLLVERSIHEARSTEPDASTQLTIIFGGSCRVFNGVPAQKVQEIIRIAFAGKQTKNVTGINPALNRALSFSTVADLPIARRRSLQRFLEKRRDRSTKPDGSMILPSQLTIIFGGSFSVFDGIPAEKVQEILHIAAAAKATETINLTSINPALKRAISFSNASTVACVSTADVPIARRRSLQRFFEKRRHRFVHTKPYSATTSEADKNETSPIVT
Chain of tif6a_arath TIFY6A (Q58G47 whole entry): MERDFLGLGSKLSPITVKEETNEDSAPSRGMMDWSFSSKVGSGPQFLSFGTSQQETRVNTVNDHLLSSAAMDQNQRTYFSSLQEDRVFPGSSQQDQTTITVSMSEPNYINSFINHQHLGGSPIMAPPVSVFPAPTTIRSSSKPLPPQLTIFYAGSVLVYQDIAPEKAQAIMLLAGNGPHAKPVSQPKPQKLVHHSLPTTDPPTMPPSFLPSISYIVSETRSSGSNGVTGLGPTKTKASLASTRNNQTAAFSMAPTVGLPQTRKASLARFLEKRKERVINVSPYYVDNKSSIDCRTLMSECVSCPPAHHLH
Chain of tif9_arath TIFY9 (Q93ZM9 whole entry): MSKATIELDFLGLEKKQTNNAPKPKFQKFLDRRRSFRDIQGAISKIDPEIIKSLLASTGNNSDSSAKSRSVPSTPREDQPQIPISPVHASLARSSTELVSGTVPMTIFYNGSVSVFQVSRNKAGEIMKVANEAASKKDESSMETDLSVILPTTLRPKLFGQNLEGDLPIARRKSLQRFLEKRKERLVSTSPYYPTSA
Chain of ti11a_arath TIFY11A (Q9LDU5 whole entry): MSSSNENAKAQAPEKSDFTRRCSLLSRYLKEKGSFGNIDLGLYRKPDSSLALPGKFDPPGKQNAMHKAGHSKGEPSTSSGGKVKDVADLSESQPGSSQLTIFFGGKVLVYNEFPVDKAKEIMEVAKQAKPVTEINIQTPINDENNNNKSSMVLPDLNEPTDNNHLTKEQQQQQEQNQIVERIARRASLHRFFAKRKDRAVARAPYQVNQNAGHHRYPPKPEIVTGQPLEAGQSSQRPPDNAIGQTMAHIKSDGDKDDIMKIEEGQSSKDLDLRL
Chain of tif7_arath TIFY7 (Q8W4J8 whole entry): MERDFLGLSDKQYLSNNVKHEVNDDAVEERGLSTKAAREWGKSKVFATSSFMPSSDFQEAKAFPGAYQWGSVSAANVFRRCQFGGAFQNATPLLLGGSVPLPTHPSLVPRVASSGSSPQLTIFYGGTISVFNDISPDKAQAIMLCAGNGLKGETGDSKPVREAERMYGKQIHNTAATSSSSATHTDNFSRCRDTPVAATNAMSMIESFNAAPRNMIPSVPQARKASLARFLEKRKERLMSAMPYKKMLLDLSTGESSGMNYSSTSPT
Chain of tif3b_arath TIFY3B (Q9C5K8 whole entry): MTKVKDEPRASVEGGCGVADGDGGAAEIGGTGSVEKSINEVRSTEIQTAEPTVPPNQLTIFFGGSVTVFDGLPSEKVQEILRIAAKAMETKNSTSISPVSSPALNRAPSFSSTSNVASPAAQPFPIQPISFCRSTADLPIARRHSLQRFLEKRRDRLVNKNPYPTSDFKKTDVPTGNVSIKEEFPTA
Chain of tif5a_arath TIFY5A (Q8LBM2 whole entry): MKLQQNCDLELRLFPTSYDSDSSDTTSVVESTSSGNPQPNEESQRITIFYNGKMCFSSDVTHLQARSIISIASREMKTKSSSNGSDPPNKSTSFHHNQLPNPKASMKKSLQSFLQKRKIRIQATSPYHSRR
Chain of ti11b_arath TIFY11B (Q9C9E3 whole entry): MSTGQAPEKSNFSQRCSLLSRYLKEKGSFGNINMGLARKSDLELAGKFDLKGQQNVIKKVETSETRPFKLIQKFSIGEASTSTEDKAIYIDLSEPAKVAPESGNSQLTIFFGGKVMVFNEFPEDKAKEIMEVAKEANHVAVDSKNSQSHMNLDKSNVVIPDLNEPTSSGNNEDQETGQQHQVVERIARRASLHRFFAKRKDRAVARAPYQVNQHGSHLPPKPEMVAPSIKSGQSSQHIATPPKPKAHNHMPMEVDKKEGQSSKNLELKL
Chain of ti10b_arath TIFY10B (Q9S7M2 whole entry): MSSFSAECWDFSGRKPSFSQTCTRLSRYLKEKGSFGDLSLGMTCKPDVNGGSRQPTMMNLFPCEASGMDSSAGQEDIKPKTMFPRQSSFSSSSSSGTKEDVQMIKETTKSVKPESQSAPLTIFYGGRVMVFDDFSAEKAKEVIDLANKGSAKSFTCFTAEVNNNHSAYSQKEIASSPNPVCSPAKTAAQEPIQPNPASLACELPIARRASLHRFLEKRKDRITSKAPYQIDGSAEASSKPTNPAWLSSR
Chain of ti10a_arath TIFY10A (Q9LMA8 whole entry): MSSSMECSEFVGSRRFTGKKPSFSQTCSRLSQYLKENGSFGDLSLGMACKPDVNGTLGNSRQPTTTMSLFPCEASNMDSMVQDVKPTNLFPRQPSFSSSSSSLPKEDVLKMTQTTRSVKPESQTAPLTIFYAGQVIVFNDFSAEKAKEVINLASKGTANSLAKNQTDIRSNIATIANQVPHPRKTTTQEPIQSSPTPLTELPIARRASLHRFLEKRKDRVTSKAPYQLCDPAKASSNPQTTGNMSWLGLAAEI

Transcription factor MYC3 (Arabidopsis thaliana (Mouse-ear cress)), Q9FIP9 F151A;L152A
disrupting interaction strength: all assays above
